Measured values from article PMC11996917, “An inherited predisposition allele promotes gastric cancer via enhancing deubiquitination-mediated activation of epithelial-to-mesenchymal transition signaling”.

Target: GLI3 (His-tagged; probably zinc-finger fragment) (UniProt P10071 480-632)
Assay: EMSA; dose-dependent shift; 5 mM MgCl2; EMSA: 20 mM Tris-HCl pH 7.5, 50 mM NaCl, 5 mM MgCl2, 0.2 mM EDTA, 1 mM DTT, 1 h at room temperature; 6% native PAGE
Conditions: protein: recombinant; tags: His; label: biotin; blunt

Sequence of GLI3 (His-tagged; probably zinc-finger fragment) (P10071 480-632): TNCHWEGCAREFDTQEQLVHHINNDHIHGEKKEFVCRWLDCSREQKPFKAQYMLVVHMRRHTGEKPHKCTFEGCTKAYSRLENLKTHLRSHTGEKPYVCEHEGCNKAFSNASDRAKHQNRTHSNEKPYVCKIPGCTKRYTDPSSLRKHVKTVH

B1: rs72856331-G (dsDNA)
DNA 1: CCCCAAGCAGGGGGTGGCCCCTGAG
DNA 2: CTCAGGGGCCACCCCCTGCTTGGGG
B1: binds.
